Patent US20250197484A1 (ECO ANIMAL HEALTH, published 2025)
Where two headings read alike, the source gives them in different places.

Columns and labels:
[1] = biological target: T1, Clostridium perfringens NetB toxin (necrotic enteritis B-like toxin) (Clostridium perfringens)
[2] = biological target: T1, Clostridium perfringens NetB toxin …; experiment: cell-based or functional assay
[3] = biological target: T1, Clostridium perfringens NetB toxin …; experiment: cell-based or functional assay; remark: listed apart in the source
[4] = biological target: T1, Clostridium perfringens NetB toxin …; experiment: SPR (Biacore 8K+), single cycle kinetics, NetB toxin immobilised, pH 7.4
[5] = biological target: T1, Clostridium perfringens NetB toxin …; remark: listed apart in the source

B1: Net_14 (VHH)
VHH: QVQLVESGGGLVQAGGSVRLSCVASGLTFSGYSLGWFRQAPGKEREGVSYISSSGMITDYADSVKGRVTISRDDAKSTMYLQMNSLKPEDTAVYYCAARFPRPRSWLSTDSYNYWGQGAQVTVSS
EC50 (read off the curve) [1]: ~0.02 µg/mL | IC50, inhibition of NetB-induced RBC lysis, 0 min incubation with 30 U/ml pepsin [2]: 23 nM | IC50 of NetB-induced RBC lysis inhibition after incubation in water, Day 0 [3]: 44.2 nM | IC50 of NetB-induced RBC lysis inhibition after incubation in water, Day 1 [3]: 53 nM | IC50 of NetB-induced RBC lysis inhibition after incubation in water, Day 4 [3]: 51.1 nM | Kd [4]: 0.095 nM | koff [4]: 6.32e-05 s⁻¹ | kon [4]: 668000 M⁻¹ s⁻¹

B2: Net_83 (VHH)
VHH: QVQLVESGGGLVQAGESLRLSCAASGSIRSISFMNWYRQQPGKQRELVAGINQIGNTNYAGSVKGRFTISRDNAKNTVYLQMNSLKPEDTAVYYCNVIVRGTVSPFQFWGQGTQVTVSS
EC50 (read off the curve) [5]: ~0.03 µg/mL | IC50, inhibition of NetB-induced RBC lysis, 0 min incubation with 30 U/ml pepsin [2]: 61 nM | IC50 of NetB-induced RBC lysis inhibition after incubation in water, Day 0 [3]: 163 nM | IC50 of NetB-induced RBC lysis inhibition after incubation in water, Day 1 [3]: 168 nM | IC50 of NetB-induced RBC lysis inhibition after incubation in water, Day 4 [3]: 245 nM | Kd [4]: 0.213 nM | koff [4]: 0.000248 s⁻¹ | kon [4]: 1.17e+06 M⁻¹ s⁻¹
